The record followed here is patent US11319374B2, “Inhibitors of prototypic galectin dimerization and uses thereof” (INSTITUT NATIONAL DE LA RECHERCHE SCIENTIFIQUE, priority 2015, dated 2022).

Data set [1] has as its system Jurkat T cells. Put plainly: FITC-labeled hGal-7 binding on Jurkat T cells, flow cytometry. In kind it is cell-based. Conditions: FITC-labeled hGal-7 0.1 μM pre-incubated with peptide, FIG. 4. The protocol:
FITC conjugation and hGal-7 binding assay. To assess hGal-7 binding onto Jurkat T cells, 5 μL of a 1.25 mg/mL fluorescein isothiocyanate (FITC)/DMSO solution was added to 300 μL of 1.7 μg/μL recombinant hGal-7 in a 0.1 M NaHCO3 pH 9.2 solution and incubated for 1 h at room temperature on a roller. FITC-labeled hGal-7 was then purified using a PD-10 Sepharose® column (GE healthcare) and eluted with PBS containing 0.01% [v/v] sodium azide. FITC-labeled hGal-7 (0.1 μM) was then pre-incubated with hGal-7(129-135) (or related peptides) in 20 mM potassium phosphate buffer pH 7.1 for 1 h at 4° C. Jurkat cells (5×10^5 cells per sample) were harvested in PBS-0.01% [v/v] sodium azide and incubated for 30 min on ice with the FITC-labeled hGal-7 with and without peptides. Cells were then washed with PBS-0.01% [v/v] sodium azide and resuspended in 400 μL of the same buffer and analyzed on a FACSCalibur® (BD Biosciences®).
It was thus tested whether hGal-7(129-135) could modulate the binding of hGal-7 on Jurkat T cells, a cell model that is commonly used to test the pro-apoptotic activity of galectins. For this purpose, recombinant hGal-7 was labeled with fluorescein isothiocyante (FITC) and its binding on the surface of Jurkat T cells was measured by flow cytometry in absence or presence of increasing concentrations of hGal-7(129-135). […]

The test system of data set [2] is Jurkat T cells. Put plainly: Apoptosis/toxicity of peptide alone in Jurkat T cells, Annexin V/PI. In kind it is cell-based. The protocol: FIG. 8A: Flow cytometry histogram showing propidium iodide (PI) (FL3) labeling of Jurkat T cells without or with 200 μM of hGal-7(129-135). FIG. 8B: Histogram showing the average percentage of Annexin-V (AV) positive Jurkat T cells in the presence of increasing concentrations of […]. FIG. 8C: Flow cytometry histogram showing PI (FL3) labeling of Jurkat T cells without or with 200 μM of PACAP28-38 FIG. 8D: Histogram showing the average percentage of AV-positive Jurkat T cells in the presence of increasing concentrations of PACAP28-38. The percentage of cell death was obtained as described above. Error bars represent standard deviation. Significance was calculated with respect to AF samples. Results are representative of three independent experiments.
Apoptosis assays with Annexin V/PI staining. Apoptosis was measured by flow cytometry using FITC-labeled Annexin V (Biolegend®, San Diego, Calif., USA) and propidium iodide. Briefly, the corresponding dilutions of recombinant hGal-7 and hGal-7(129-135) peptides were pre-incubated for 1 h at 4° C. in serum-free RPMI 1640 medium. 2.5×10^5 Jurkat cells were then harvested in the same medium and incubated with their corresponding dilutions at 37° C. for 4 h. Cells were washed once in PBS and once in binding buffer (0.01 M HEPES, 0.14 M NaCl, 2.5 mM CaCl2, pH 7.4). Cells were then incubated for 15 min with Annexin V in the dark at room temperature. A total of 400 μL of binding buffer containing 0.25 μg/mL propidium iodide was added to the cells before analysis by flow cytometry.

Turning to “H-Leu-Asp-Ser-Val-Arg-Ile-Phe-NH2 (H-LDSVRIF-NH2; listed as Homo sapiens) [hGal-7(129-135), peptide corresponding to residues 129-135 of hGal-7]”, the “fluorescent intensity of Jurkat T cells due to FITC-labeled hGal-7 binding” value in data set [1] is “increased the fluorescent intensity of Jurkat T cells in a concentration-dependent manner”. For the same substance, in data set [2] (PI labeling at 200 μM, Annexin V at increasing concentrations, FIGS. 8A to 8D), the “toxicity in Jurkat T cells” value was “do not induce toxicity in Jurkat T cells”. The “induction of apoptosis by peptide alone” value in data set [2] (peptide alone, FIG. 8) is on record as “did not induce apoptosis in Jurkat T cells”.
